Assay results from patent publication US20240083986A1 (published 2024).

Assays:
[1] = target: T1, European Hornbeam (Car b 1 isoform 2, MyBiosource, Cat #MBS1043940) (European Hornbeam, UniProt P38950 2-160, limits assumed); assay: SPR, mAb captured via anti-hFc, 25 C;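 further: related allergen binding to captured purified monoclonal antibodies, rate constants fitted to a one-to-one model with mass transport limitation, KD and t½ calculated from the rates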
T1 construct: Bought reagent
T1 sequence (looked up): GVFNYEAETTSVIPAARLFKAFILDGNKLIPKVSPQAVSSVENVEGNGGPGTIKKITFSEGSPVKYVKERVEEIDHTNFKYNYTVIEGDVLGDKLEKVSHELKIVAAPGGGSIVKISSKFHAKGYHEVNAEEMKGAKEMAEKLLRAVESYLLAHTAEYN

[2] = target: T2, CHO produced recombinant Bet v 1 containing a S85A mutation with a C-terminal myc-myc hexahistidine tag … (Betula verrucosa (birch)); assay: SPR, mAb captured via anti-hFc, 25 C
T2 chain: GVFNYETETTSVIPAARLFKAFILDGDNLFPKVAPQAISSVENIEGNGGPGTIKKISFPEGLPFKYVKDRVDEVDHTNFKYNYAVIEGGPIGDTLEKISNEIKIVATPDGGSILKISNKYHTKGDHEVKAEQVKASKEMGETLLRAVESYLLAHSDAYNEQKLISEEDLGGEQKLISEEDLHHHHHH

[3] = target: T3, Celery (Api g 1, MyBiosource, Cat #MBS1171376) (Celery, UniProt P49372 1-154, limits assumed); assay: SPR, mAb captured via anti-hFc, 25 C;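 further: Anti-Bet v 1 monoclonal antibodies probed on a Biacore 4000 in HBS-ET buffer at pH 7.4, rate constants fitted to a 1:1 model with mass transport limitation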
T3 construct: Bought reagent
T3 sequence (looked up): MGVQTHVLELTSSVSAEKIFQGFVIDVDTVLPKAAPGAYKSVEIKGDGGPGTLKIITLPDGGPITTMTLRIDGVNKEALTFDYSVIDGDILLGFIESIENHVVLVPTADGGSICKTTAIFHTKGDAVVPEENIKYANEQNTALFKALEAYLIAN

[4] = target: T4, Apple (Mal d 1, MyBiosource, Cat #MBS1224919) (Apple, UniProt P43211 2-159, limits assumed); assay: SPR, mAb captured via anti-hFc, 25 C;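 further: biacore 4000 SPR, related allergen binding to purified anti-Bet v 1 mAbs, HBS-ET running buffer pH 7.4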
T4 construct: Bought reagent
T4 sequence (looked up): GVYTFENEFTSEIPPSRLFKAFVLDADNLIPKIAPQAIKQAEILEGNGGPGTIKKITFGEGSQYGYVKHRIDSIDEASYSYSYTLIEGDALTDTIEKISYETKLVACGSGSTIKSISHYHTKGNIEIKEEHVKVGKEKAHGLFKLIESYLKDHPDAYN

[5] = target: T5, Alder (Aln g 1, MyBiosource, Cat #MBS1041484) (Alder, UniProt P38948 2-160, limits assumed); assay: SPR, mAb captured via anti-hFc, 25 C
T5 construct: Bought reagent
T5 sequence (looked up): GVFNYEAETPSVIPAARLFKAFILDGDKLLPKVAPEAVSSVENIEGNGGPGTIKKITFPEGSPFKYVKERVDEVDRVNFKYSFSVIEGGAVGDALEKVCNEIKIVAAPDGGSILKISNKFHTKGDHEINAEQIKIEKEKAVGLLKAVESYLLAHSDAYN

[6] = target: T6, European Hornbeam (Car b 1 isoform 1A & 1B, MyBiosource, Cat #MBS1200018) (European Hornbeam, UniProt P38949 2-160); assay: SPR, mAb captured via anti-hFc, 25 C
T6 construct: Bought reagent
T6 sequence (looked up): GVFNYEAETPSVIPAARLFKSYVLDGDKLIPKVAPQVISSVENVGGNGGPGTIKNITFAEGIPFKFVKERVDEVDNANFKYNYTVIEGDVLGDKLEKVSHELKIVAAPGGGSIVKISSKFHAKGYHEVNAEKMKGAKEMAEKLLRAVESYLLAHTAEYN

[7] = target: T2, CHO produced recombinant Bet v 1 …; assay: SPR, mAb captured via anti-hFc, 37 C

B1: H4H17015P (antibody, human IgG4, V domains shown)
VH: QVQLQESGPGLVKPSQTLSLTCTVSGGSISSADHYWSWIRQQPGKGLEWIGYISYRGTTYYNPTLESRVSISVDTFKNQFSLMLHSVTVADTAVYYCAKVLQGLVRFRDYGFDVWGQGTTVTVSS
VL: DIQLTQSPPFLSASVGDRVTITCWASQDISSYLAWYQQNPGKSPKLLIYDAFTLHTGVPSRFSGSGSGTEFTLTISSLQPEDFATFYCQHLYSFPFTFGPGTKVDIK
notes: Fully human antibody with human IgG4 Fc (H4H prefix)
[1]
  100 nM Analyte Bound (RU): 2 RU
  binding result: no binding (tested: 100 nM)
[2]
  100 nM natural Bet v 1- MMH Bound (RU): 76 RU
  Kd: 1.03 nM
  koff: 0.000281 s⁻¹
  kon: 272000 M⁻¹ s⁻¹
  t½: 41 min
[3]
  100 nM Analyte Bound (RU): 0 RU
  binding result: no binding (tested: 100 nM)
[4]
  100 nM Analyte Bound (RU): 0 RU
  binding result: no binding (tested: 100 nM)
[5]
  100 nM Analyte Bound (RU): 8 RU
  binding result: no binding (tested: 100 nM)
[6]
  100 nM Analyte Bound (RU): 0 RU
  binding result: no binding (tested: 100 nM)
[7]
  100 nM natural Bet v 1-MHH Bound (RU): 89 RU
  Kd: 2.02 nM
  koff: 0.000899 s⁻¹
  kon: 445000 M⁻¹ s⁻¹
  t½: 13 min

B2: H4H17027P (antibody, human IgG4, V domains shown)
VH: EVQLVESGGGLVQPGGSLRLSCAASGFTFRNYAMHWVRQAPGEGLEWVAAIYRNSDSIDYADSVKGRFTISRDNAKNSLYLQMNSLKTEDTALYYCAKDEGFLEYFDSWGQGTLVTVSS
VL: EIVLTQSPGTLSLSPGERASLSCRASQSVSSSFLAWYQQKPGQAPRLLIYGVSSRFIGIPDRFSGGGSGTDFTLTITRLEPEDFAVYYCQQYGRSPWTFGQGTKVEIK
notes: as for B1
[1]
  100 nM Analyte Bound (RU): 42 RU
  Kd: 98.9 nM
  koff: 0.00577 s⁻¹
  kon: 58400 M⁻¹ s⁻¹
  t½: 2 min
[2]
  100 nM natural Bet v 1- MMH Bound (RU): 63 RU
  Kd: 2.9 nM
  koff: 0.000319 s⁻¹
  kon: 110000 M⁻¹ s⁻¹
  t½: 36 min
[3]
  100 nM Analyte Bound (RU): 0 RU
  binding result: no binding (tested: 100 nM)
[4]
  100 nM Analyte Bound (RU): 0 RU
  binding result: no binding (tested: 100 nM)
[5]
  100 nM Analyte Bound (RU): 9 RU
  Kd: 69.2 nM
  koff: 0.00643 s⁻¹
  kon: 92900 M⁻¹ s⁻¹
  t½: 1.8 min
[6]
  100 nM Analyte Bound (RU): 41 RU
  Kd: 214 nM
  koff: 0.00673 s⁻¹
  kon: 31400 M⁻¹ s⁻¹
  t½: 1.7 min
[7]
  100 nM natural Bet v 1-MHH Bound (RU): 78 RU
  Kd: 6.8 nM
  koff: 0.00116 s⁻¹
  kon: 171000 M⁻¹ s⁻¹
  t½: 9.9 min
